Source: patent publication US20260242735A1 (UNIVERSIT T BASEL, published 2026)

Legend:
Assay in all cases: flow cytometry, transfected cells
human CD33 Y49G = human CD33 Y49G (human, UniProt P20138 18-364)
human CD33 K52T = human CD33 K52T (human, UniProt P20138 18-364)
human CD33 P48I = human CD33 P48I (human, UniProt P20138 18-364)
human CD33 K52S = human CD33 K52S (human, UniProt P20138 18-364)
human CD33 Y49H = human CD33 Y49H (human, UniProt P20138 18-364)
human CD33 Y49L = human CD33 Y49L (human, UniProt P20138 18-364)
human CD33 Y49L, sequence (P20138 18-364 Y49L limits assumed): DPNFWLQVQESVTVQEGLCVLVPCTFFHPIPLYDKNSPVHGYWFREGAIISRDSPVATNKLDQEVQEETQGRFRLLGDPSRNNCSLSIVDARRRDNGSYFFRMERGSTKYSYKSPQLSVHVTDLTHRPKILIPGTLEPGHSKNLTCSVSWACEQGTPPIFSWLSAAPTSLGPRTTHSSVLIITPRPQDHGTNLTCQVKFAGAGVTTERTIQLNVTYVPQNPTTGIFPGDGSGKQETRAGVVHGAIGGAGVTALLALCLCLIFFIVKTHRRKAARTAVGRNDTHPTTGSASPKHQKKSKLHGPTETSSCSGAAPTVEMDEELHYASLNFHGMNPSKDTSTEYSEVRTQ

human CD33 K52Y = human CD33 K52Y (human, UniProt P20138 18-364)
human CD33 K52Y, sequence (P20138 18-364 K52Y limits assumed): as the sequence (P20138 18-364 Y49L limits assumed) above, with L32Y, K35Y counted along it

human CD33 Y49R = human CD33 Y49R (human, UniProt P20138 18-364)
human CD33 Y49R, sequence (P20138 18-364 Y49R limits assumed): as the sequence (P20138 18-364 Y49L limits assumed) above, with L32R counted along it

human CD33 S131F = human CD33 S131F (human, UniProt P20138 18-364)
human CD33 S131F, sequence (P20138 18-364 S131F limits assumed): as the sequence (P20138 18-364 Y49L limits assumed) above, with L32Y, S114F counted along it

human CD33 W22Y = human CD33 W22Y (human, UniProt P20138 18-364)
human CD33 W22Y, sequence (P20138 18-364 W22Y limits assumed): as the sequence (P20138 18-364 Y49L limits assumed) above, with W5Y, L32Y counted along it

human CD33 P132S = human CD33 P132S (human, UniProt P20138 18-364)
human CD33 P132S, sequence (P20138 18-364 P132S limits assumed): as the sequence (P20138 18-364 Y49L limits assumed) above, with L32Y, P115S counted along it

human CD33 S131K = human CD33 S131K (human, UniProt P20138 18-364)
human CD33 S131K, sequence (P20138 18-364 S131K limits assumed): as the sequence (P20138 18-364 Y49L limits assumed) above, with L32Y, S114K counted along it

human CD33 P132Y = human CD33 P132Y (human, UniProt P20138 18-364)
human CD33 P132Y, sequence (P20138 18-364 P132Y limits assumed): as the sequence (P20138 18-364 Y49L limits assumed) above, with L32Y, P115Y counted along it

human CD33 P132N = human CD33 P132N (human, UniProt P20138 18-364)
human CD33 P132N, sequence (P20138 18-364 P132N limits assumed): as the sequence (P20138 18-364 Y49L limits assumed) above, with L32Y, P115N counted along it

human CD33 P132L = human CD33 P132L (human, UniProt P20138 18-364)
human CD33 P132L, sequence (P20138 18-364 P132L limits assumed): as the sequence (P20138 18-364 Y49L limits assumed) above, with L32Y, P115L counted along it

human CD33 W22Q = human CD33 W22Q (human, UniProt P20138 18-364)
human CD33 W22Q, sequence (P20138 18-364 W22Q limits assumed): as the sequence (P20138 18-364 Y49L limits assumed) above, with W5Q, L32Y counted along it

human CD33 P132F = human CD33 P132F (human, UniProt P20138 18-364)
human CD33 P132F, sequence (P20138 18-364 P132F limits assumed): as the sequence (P20138 18-364 Y49L limits assumed) above, with L32Y, P115F counted along it

human CD33 P46I = human CD33 P46I (human, UniProt P20138 18-364)
human CD33 P46I, sequence (P20138 18-364 P46I limits assumed): as the sequence (P20138 18-364 Y49L limits assumed) above, with P29I, L32Y counted along it

human CD33 F44P = human CD33 F44P (human, UniProt P20138 18-364)
human CD33 F44P, sequence (P20138 18-364 F44P limits assumed): as the sequence (P20138 18-364 Y49L limits assumed) above, with F27P, L32Y counted along it

human CD33 Y129S = human CD33 Y129S (human, UniProt P20138 18-364)
human CD33 Y129S, sequence (P20138 18-364 Y129S limits assumed): as the sequence (P20138 18-364 Y49L limits assumed) above, with L32Y, Y112S counted along it

human CD33 P46L = human CD33 P46L (human, UniProt P20138 18-364)
human CD33 P46L, sequence (P20138 18-364 P46L limits assumed): as the sequence (P20138 18-364 Y49L limits assumed) above, with P29L, L32Y counted along it

human CD33 Q24E = human CD33 Q24E (human, UniProt P20138 18-364)
human CD33 Q24E, sequence (P20138 18-364 Q24E limits assumed): as the sequence (P20138 18-364 Y49L limits assumed) above, with Q7E, L32Y counted along it

human CD33 Q24T = human CD33 Q24T (human, UniProt P20138 18-364)
human CD33 Q24T, sequence (P20138 18-364 Q24T limits assumed): as the sequence (P20138 18-364 Y49L limits assumed) above, with Q7T, L32Y counted along it

human CD33 Q24S = human CD33 Q24S (human, UniProt P20138 18-364)
human CD33 Q24S, sequence (P20138 18-364 Q24S limits assumed): as the sequence (P20138 18-364 Y49L limits assumed) above, with Q7S, L32Y counted along it

human CD33 H45Y = human CD33 H45Y (human, UniProt P20138 18-364)
human CD33 H45Y, sequence (P20138 18-364 H45Y limits assumed): as the sequence (P20138 18-364 Y49L limits assumed) above, with H28Y, L32Y counted along it

human CD33 D18R = human CD33 D18R (human, UniProt P20138 19-364)
human CD33 D18R, sequence (P20138 18-364 D18R limits assumed): as the sequence (P20138 18-364 Y49L limits assumed) above, with D1R, L32Y counted along it

human CD33 P48S = human CD33 P48S (human, UniProt P20138 18-364)
human CD33 P48S, sequence (P20138 18-364 P48S limits assumed): as the sequence (P20138 18-364 Y49L limits assumed) above, with P31S, L32Y counted along it

human CD33 Y50R = human CD33 Y50R (human, UniProt P20138 18-364)
human CD33 Y50R, sequence (P20138 18-364 Y50R limits assumed): as the sequence (P20138 18-364 Y49L limits assumed) above, with L32Y, Y33R counted along it

human CD33 P48L = human CD33 P48L (human, UniProt P20138 18-364)
human CD33 P48L, sequence (P20138 18-364 P48L limits assumed): as the sequence (P20138 18-364 Y49L limits assumed) above, with P31L, L32Y counted along it

Measured: binding result

human CD33 K52T, sequence (P20138 18-364 K52T limits assumed): as the sequence (P20138 18-364 Y49L limits assumed) above, with L32Y, K35T counted along it
human CD33 P48I, sequence (P20138 18-364 P48I limits assumed): as the sequence (P20138 18-364 Y49L limits assumed) above, with P31I, L32Y counted along it
human CD33 K52S, sequence (P20138 18-364 K52S limits assumed): as the sequence (P20138 18-364 Y49L limits assumed) above, with L32Y, K35S counted along it
human CD33 Y49G, sequence (P20138 18-364 Y49G limits assumed): as the sequence (P20138 18-364 Y49L limits assumed) above, with L32G counted along it
human CD33 Y49H, sequence (P20138 18-364 Y49H limits assumed): as the sequence (P20138 18-364 Y49L limits assumed) above, with L32H counted along it

B1: Refmab #5 (antibody, human IgG1, V domains shown)
VH: QVQLVQSGAEVKKPGASVKVSCKASGYTFTNYDINWVRQAPGQGLEWIGWIYPGDGSTKYNEKFKAKATLTADTSTSTAYMELRSLRSDDTAVYYCASGYEDAMDYWGQGTTVTVSS
VL: DIQMTQSPSSLSASVGDRVTINCKASQDINSYLSWFQQKPGKAPKTLIYRANRLVDGVPSRFSGSGSGQDYTLTISSLQPEDFATYYCLQYDEFPLTFGGGTKVEIK
no binding (tested: below 20%): human CD33 Y49G | human CD33 K52T | human CD33 P48I | human CD33 K52S | human CD33 Y49H | human CD33 Y49L | human CD33 K52Y | human CD33 Y49R

B2: Refmab #6 (antibody, human IgG1, V domains shown)
VH: QVQLQQPGAEVVKPGASVKMSCKASGYTFTSYYIHWIKQTPGQGLEWVGVIYPGNDDISYNQKFQGKATLTADKSSTTAYMQLSSLTSEDSAVYYCAREVRLRYFDVWGQGTTVTVSS
VL: EIVLTQSPGSLAVSPGERVTMSCKSSQSVFFSSSQKNYLAWYQQIPGQSPRLLIYWASTRESGVPDRFTGSGSGTDFTLTISSVQPEDLAIYYCHQYLSSRTFGQGTKLEIK
no binding (tested: below 20%): human CD33 S131F | human CD33 W22Y | human CD33 P132S | human CD33 S131K | human CD33 P132Y | human CD33 P132N | human CD33 P132L | human CD33 W22Q | human CD33 P132F

B3: Refmab #3 (antibody, human IgG1, V domains shown)
VH: QVQLVQSGAEVKKPGSSVKVSCKASGYTFTDYNMHWVRQAPGQGLEWIGYIYPYNGGTGYNQKFKSKATITADESTNTAYMELSSLRSEDTAVYYCARGRPAMDYWGQGTLVTVSS
VL: DIQMTQSPSSLSASVGDRVTITCRASESVDNYGISFMNWFQQKPGKAPKLLIYAASNQGSGVPSRFSGSGSGTDFTLTISSLQPDDFATYYCQQSKEVPWTFGQGTKVEIK
no binding (tested: below 20%): human CD33 P46I | human CD33 F44P | human CD33 Y129S | human CD33 P46L | human CD33 Q24E | human CD33 Q24T | human CD33 Q24S | human CD33 H45Y | human CD33 D18R

B4: Refmab #4 (antibody, human IgG1, V domains shown)
VH: QVQLVQSGAEVKKPGESVKVSCKASGYTFTNYGMNWVKQAPGQGLEWMGWINTYTGEPTYADKFQGRVTMTTDTSTSTAYMEIRNLGGDDTAVYYCARWSWSDGYYVYFDYWGQGTSVTVSS
VL: DIVMTQSPDSLTVSLGERTTINCKSSQSVLDSSTNKNSLAWYQQKPGQPPKLLLSWASTRESGIPDRFSGSGSGTDFTLTIDSPQPEDSATYYCQQSAHFPITFGQGTRLEIK
no binding (tested: below 20%): human CD33 P48S | human CD33 Y50R | human CD33 P48L
